± gives the standard deviation.
Assay: protein stability index of a GFP-peptide fusion (GPS, HEK-293T) (PSI 1-6); higher = more stable
Details: c terminus: a fixed tail appended
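Note: 24-mer peptide tiles fused after GFP, lentivirally expressed, FACS-sorted into six equal bins by GFP/DsRed ratio, decoded by Illumina sequencing, PSI is the read-weighted mean bin number.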

## KAFYKRYRLTEHERAHKGEKPYGC [ZNF649]
treatment: DMSO
  protein stability index: 3.62 ± 0.93
treatment: MLN4924 1 uM, 8 h
  protein stability index: 3.16 ± 0.57

## AWLNYPCFKNWDGSPVSSWILLAE [OAS1]
treatment: DMSO
  protein stability index: 2.58 ± 0.34
treatment: MLN4924 1 uM, 8 h
  protein stability index: 2.3 ± 0.23

## MADADEGFGLAHTPLEPDAKDLPC [TBX5]
treatment: DMSO
  protein stability index: 5.24 ± 0.27
treatment: MLN4924 1 uM, 8 h
  protein stability index: 5.13 ± 0.22

## VIQAVQKSEEGHPFKAYLDVDITL [RTN3]
treatment: DMSO
  protein stability index: 2.23 ± 0.59
treatment: MLN4924 1 uM, 8 h
  protein stability index: 2.18 ± 0.39

## EMVRFLLEAGADQEHKTDEMHTAL [ANKRD17]
treatment: DMSO
  protein stability index: 2.88 ± 0.38
treatment: MLN4924 1 uM, 8 h
  protein stability index: 3.05 ± 0.42

## FTPPTSLTRAGMSYYNSPGLHVQH [CCDC6]
treatment: DMSO
  protein stability index: 2.49 ± 0.52
treatment: MLN4924 1 uM, 8 h
  protein stability index: 2.84 ± 0.34

## SVGGVPGGTGSGDGNKIFLCHCGK [ZBTB22]
treatment: DMSO
  protein stability index: 3.51 ± 0.19
treatment: MLN4924 1 uM, 8 h
  protein stability index: 3.73 ± 0.47

## SAEEVRFPVSVTQQSPAAVSMETY [C2CD2L]
treatment: DMSO
  protein stability index: 4.52 ± 0.33
treatment: MLN4924 1 uM, 8 h
  protein stability index: 4.71 ± 0.14

## DSEHEPVYRAELVGELNGYLRDSS [PWWP2B]
treatment: DMSO
  protein stability index: 4.46 ± 0.14
treatment: MLN4924 1 uM, 8 h
  protein stability index: 4.45 ± 0.16

## VLPPRQPSALVPSVTEYRLDGHTI [MYBL2]
treatment: DMSO
  protein stability index: 3.35 ± 0.35
treatment: MLN4924 1 uM, 8 h
  protein stability index: 3.41 ± 0.24

## VGDEFLNCKLATRAKDFLPADIQA [SNX8]
treatment: DMSO
  protein stability index: 2.88 ± 0.26
treatment: MLN4924 1 uM, 8 h
  protein stability index: 2.92 ± 0.27

## SAENSVAKKEDKVPVKKQKTRTVF [NANOGP8]
treatment: DMSO
  protein stability index: 4.21 ± 0.33
treatment: MLN4924 1 uM, 8 h
  protein stability index: 4.29 ± 0.34

## GFLLRYAVIKSNHSYCRMFLQRGA [ASB7]
treatment: DMSO
  protein stability index: 2.6 ± 0.37
treatment: MLN4924 1 uM, 8 h
  protein stability index: 2.34 ± 0.38

## YDFIVTKARGKSGPLFNFDVHDDV [FAM50A]
treatment: DMSO
  protein stability index: 2.65 ± 0.23
treatment: MLN4924 1 uM, 8 h
  protein stability index: 2.78 ± 0.45

## VFGTSLTARVIIPLLKDEGFAVKA [GFOD1]
treatment: DMSO
  protein stability index: 2.7 ± 0.57
treatment: MLN4924 1 uM, 8 h
  protein stability index: 2.34 ± 0.25

## NKKYYKKFSIPDLDRHQLPLDDAL [DPCD]
treatment: DMSO
  protein stability index: 3.46 ± 0.13
treatment: MLN4924 1 uM, 8 h
  protein stability index: 3.55 ± 0.26

## QQTHNIEKAHECTDCGKAFLKKSQ [ZNF649]
treatment: DMSO
  protein stability index: 3.93 ± 0.3
treatment: MLN4924 1 uM, 8 h
  protein stability index: 4.02 ± 0.17

## RTPLMKAARAGHVCTVQFLISKGA [ANKRD17]
treatment: DMSO
  protein stability index: 2.27 ± 0.37
treatment: MLN4924 1 uM, 8 h
  protein stability index: 2.46 ± 0.33

## FLSLEASTETLVHVSDEDNNADLC [DLC1]
treatment: DMSO
  protein stability index: 5.11 ± 0.27
treatment: MLN4924 1 uM, 8 h
  protein stability index: 5.2 ± 0.12

## PGFSTLSLADQMSLLQSAWMEILI [ESRRG]
treatment: DMSO
  protein stability index: 2.27 ± 0.88
treatment: MLN4924 1 uM, 8 h
  protein stability index: 2.29 ± 0.4

## GGRKGTAIELQGHNDRVQALSYAQ [WDFY2]
treatment: DMSO
  protein stability index: 4.28 ± 0.21
treatment: MLN4924 1 uM, 8 h
  protein stability index: 4.38 ± 0.19

## KAYDHQTQELVAIKIIKNKKAFLN [DYRK1B]
treatment: DMSO
  protein stability index: 2.37 ± 0.22
treatment: MLN4924 1 uM, 8 h
  protein stability index: 2.62 ± 0.25

## FATRPGAIETAMEDLKGHVAETSG [TPRG1]
treatment: DMSO
  protein stability index: 4.45 ± 0.31
treatment: MLN4924 1 uM, 8 h
  protein stability index: 4.81 ± 0.19

## VGSDEEDDSGKDKKKKTKKIKEKY [HSP90AB1]
treatment: DMSO
  protein stability index: 5.31 ± 0.47
treatment: MLN4924 1 uM, 8 h
  protein stability index: 5.32 ± 0.42

## RMEYVHSKNLIYRDVKPENFLIGR [CSNK1G1]
treatment: DMSO
  protein stability index: 2.45 ± 0.16
treatment: MLN4924 1 uM, 8 h
  protein stability index: 2.79 ± 0.31

## FYLALYKQMSFLEKRGCPRTALEY [TCF25]
treatment: DMSO
  protein stability index: 2.66 ± 0.4
treatment: MLN4924 1 uM, 8 h
  protein stability index: 2.01 ± 0.4

## AEFIESGQYRANEGTSSIVMEIQK [TAF7L]
treatment: DMSO
  protein stability index: 4.23 ± 0.24
treatment: MLN4924 1 uM, 8 h
  protein stability index: 4.45 ± 0.32

## KVSYLKQKGLGGAMVWALDLDDFA [CHIT1]
treatment: DMSO
  protein stability index: 1.85 ± 0.49
treatment: MLN4924 1 uM, 8 h
  protein stability index: 2.36 ± 0.3

## PQLKKESELPFVPNYLANPAFPFI [ANKRD40]
treatment: DMSO
  protein stability index: 2.82 ± 0.34
treatment: MLN4924 1 uM, 8 h
  protein stability index: 2.87 ± 0.085

## NLYVFGGYNPDYDESGGPDNEDYP [KLHDC10]
treatment: DMSO
  protein stability index: 3.9 ± 0.28
treatment: MLN4924 1 uM, 8 h
  protein stability index: 4.09 ± 0.22

## TLVSRAHQLVMEGYNWCHDRNVVT [PPP2CA]
treatment: DMSO
  protein stability index: 2.27 ± 0.23
treatment: MLN4924 1 uM, 8 h
  protein stability index: 2.21 ± 0.13

## TQHLPRECLPENLGGYVKIDLATW [PTPN9]
treatment: DMSO
  protein stability index: 2.34 ± 0.4
treatment: MLN4924 1 uM, 8 h
  protein stability index: 2.31 ± 0.41

## SCCFDPDSQRVASVSLDRCIKIWD [WDR88]
treatment: DMSO
  protein stability index: 2.44 ± 0.14
treatment: MLN4924 1 uM, 8 h
  protein stability index: 2.57 ± 0.36

## EASGYVDRDMFFKICESLNVPVDD [EFHC1]
treatment: DMSO
  protein stability index: 3.95 ± 0.29
treatment: MLN4924 1 uM, 8 h
  protein stability index: 4.17 ± 0.44

## FMYSGVENKQVVIIHHMRLQAKAL [INTS4]
treatment: DMSO
  protein stability index: 2.48 ± 0.33
treatment: MLN4924 1 uM, 8 h
  protein stability index: 2.52 ± 0.63

## FPFQAMVQFHRHHGQEGSILVTKV [GMPPB]
treatment: DMSO
  protein stability index: 2.22 ± 0.37
treatment: MLN4924 1 uM, 8 h
  protein stability index: 2.07 ± 0.15

## AYQHSGHLESKDINQEELRALEEV [C10orf62]
treatment: DMSO
  protein stability index: 5.41 ± 0.29
treatment: MLN4924 1 uM, 8 h
  protein stability index: 5.4 ± 0.17

## GPAHGPAQEEPWEKKESLGAAQEA [ZNF232]
treatment: DMSO
  protein stability index: 5.6 ± 0.22
treatment: MLN4924 1 uM, 8 h
  protein stability index: 5.49 ± 0.16

## ILFSLPPALDWDSVHVPGPHAMTI [PTPN9]
treatment: DMSO
  protein stability index: 2.66 ± 0.42
treatment: MLN4924 1 uM, 8 h
  protein stability index: 2.35 ± 0.62

## SLVLPWSFPLEWAPQNLTRWTFEK [TOR1AIP2]
treatment: DMSO
  protein stability index: 2.14 ± 0.44
treatment: MLN4924 1 uM, 8 h
  protein stability index: 2.29 ± 0.32

## HTGEKPYKCLECGKAFSQNSGLIN [ZNF24]
treatment: DMSO
  protein stability index: 2.68 ± 0.19
treatment: MLN4924 1 uM, 8 h
  protein stability index: 2.88 ± 0.21

## YKQLGSAGEGLPQVYYFGPCGKYN [CSNK1G1]
treatment: DMSO
  protein stability index: 3.05 ± 0.65
treatment: MLN4924 1 uM, 8 h
  protein stability index: 2.16 ± 0.2

## PRESTDFSSSSQEAFAASAVGSGE [ZBTB22]
treatment: DMSO
  protein stability index: 5.22 ± 0.26
treatment: MLN4924 1 uM, 8 h
  protein stability index: 5.31 ± 0.27

## LTRVLAEMREQYEAMAEKNRRDVE [KRT15]
treatment: DMSO
  protein stability index: 3.47 ± 0.31
treatment: MLN4924 1 uM, 8 h
  protein stability index: 3.93 ± 0.28

## QKLGSGAWDNPAYSGPPSPHGTLR [PKD2L1]
treatment: DMSO
  protein stability index: 3.79 ± 0.1
treatment: MLN4924 1 uM, 8 h
  protein stability index: 3.95 ± 0.31
